Laboratory results taken from FireProtDB (doi:10.1021/bi00042a027).
Values joined by “and” are separate entries in the source; they are usually repeats but may differ in a detail not shown here. Equal values may be shown once.

B1: Phosphoglycerate kinase, P00560 (parent)
chain: MSLSSKLSVQDLDLKDKRVFIRVDFNVPLDGKKITSNQRIVAALPTIKYVLEHHPRYVVLASHLGRPNGERNEKYSLAPVAKELQSLLGKDVTFLNDCVGPEVEAAVKASAPGSVILLENLRYHIEEEGSRKVDGQKVKASKEDVQKFRHELSSLADVYINDAFGTAHRAHSSMVGFDLPQRAAGFLLEKELKYFGKALENPTRPFLAILGGAKVADKIQLIDNLLDKVDSIIIGGGMAFTFKKVLENTEIGDSIFDKAGAEIVPKLMEKAKAKGVEVVLPVDFIIADAFSADANTKTVTDKEGIPAGWQGLDNGPESRKLFAATVAKAKTIVWNGPPGVFEFEKFAAGTKALLDEVVKSSAAGNTVIIGGGDTATVAKKYGVTDKISHVSTGGGASLELLEGKELPGVAFLSEKK

Variants of: B1
Conditions: Saccharomyces cerevisiae (strain ATCC 204508 / S288c), pH 7.5, 25 °C, GdnHCl, Sodium phosphate 20 mM, structure 3PGK, whole UniProt chain shown

Variant	ddG of mutation (higher = less stable) (CD, transition: 3)	denaturant m value (CD, transition: 3)	denaturant midpoint (higher = more stable) (CD, transition: 3)	unfolding free energy (CD, transition: 3)	denaturant midpoint (higher = more stable) (Fluorescence, transition: 3)	unfolding free energy (Fluorescence, transition: 3)	denaturant m value (Fluorescence, transition: 3)	ddG of mutation (higher = less stable) (CD) [kcal/mol]	denaturant m value (CD) [kcal/mol/M]	denaturant midpoint (higher = more stable) (CD) [M]	unfolding free energy (CD) [kcal/mol]	ddG of mutation (higher = less stable) (Fluorescence, transition: 3)	denaturant m value (Fluorescence) [kcal/mol/M]	denaturant midpoint (higher = more stable) (Fluorescence) [M]	unfolding free energy (Fluorescence) [kcal/mol]	ddG of mutation (higher = less stable) (Fluorescence) [kcal/mol]
F195W	0.64 kcal/mol	10.2 kcal/mol/M	0.53 M	5.44 kcal/mol	0.52 M and 0.91 M	6.3 kcal/mol and 2.68 kcal/mol										
Y49W W334Y			0.51 M and 0.91 M	7.89 kcal/mol and 3.64 kcal/mol	0.53 M and 0.9 M	6.85 kcal/mol and 4.45 kcal/mol	12.9 kcal/mol/M and 5 kcal/mol/M									
Y49W	1.77 kcal/mol and 4.83 kcal/mol		0.41 M and 1.06 M	4.31 kcal/mol and 3.54 kcal/mol	0.42 M and 0.92 M	5.31 kcal/mol and 3.8 kcal/mol										
Y123W	5.65 kcal/mol	3.2 kcal/mol/M	0.86 M	2.72 kcal/mol	0.4 M and 0.91 M	4.81 kcal/mol and 3.45 kcal/mol		1.29	13.7	0.42	5.79	0.57 kcal/mol and 0.91 kcal/mol				
W334Y			0.63 M and 0.82 M										12.4	0.62	7.66	
L400W	2.68 kcal/mol and 3.31 kcal/mol	8.1 kcal/mol/M and 5.3 kcal/mol/M	0.42 M and 0.95 M	3.4 kcal/mol and 5.06 kcal/mol									10.7	0.39	4.15	
W309Y		10.9 kcal/mol/M and 5.8 kcal/mol/M	0.62 M and 0.84 M	6.85 kcal/mol and 4.87 kcal/mol									14.8	0.64	9.42	
Y49W W309Y			0.55 M and 0.96 M	5.93 kcal/mol and 2.34 kcal/mol	0.92 M	4.94 kcal/mol	5.4 kcal/mol/M					-0.58 kcal/mol	12.7	0.54	6.84	-1.46
